Laboratory results as given in the RNAGym collection of RNA variant scans (doi:10.7554/elife.90254).

B1: LINE1-full (parent)
chain: UACGUAGGUGGUUUUCCCCUGAUAGUGCUAAGGGGGCCUGGAAGUUUGGACUGGGCAGAGCUCAACACAGCGUGGCAAAGUGGCUGUGGCUAGACUGCCUCUCUGGAUUCCUCGUCACUCAGCAGGGCAUCUCUGAGAGAAAUGCC

Variants of: B1
Assay: self-cleavage, relative activity (ratio to wild type); higher = more cleavage; in vitro, sequencing; the parent is a self-cleaving ribozyme

Going from G33U U104A to U119A U143C, the self-cleavage rises from 0.93 to 1.93.

Going from U45A A138U to U29A U91C, the self-cleavage falls from 1.31 to 0.4.

Going from U13C G144A to G93U A141U, the self-cleavage falls from 1.91 to 0.02.

First: A43U U96C
Second: G72A A141G
The self-cleavage of the first is lower: 0.1 for the first, 1.54 for the second.

G10A A67U and U29C C63A are the same in self-cleavage: 0.07 for the first, 0.07 for the second.

First: U91C U134A
Second: G114U A142C
The self-cleavage of the first is lower: 0.57 for the first, 0.95 for the second.

First: G93U U96C
Second: U9G G60A
The self-cleavage of the first is lower: 0.06 for the first, 0.09 for the second.

Going from U46C C111U to C68U U81C, the self-cleavage falls from 1.24 to 0.18.

Compared with G88A U115C, A64G G72U is higher in self-cleavage: 0.06 for the first, 0.12 for the second.

Compared with A64G G72A, A107U U119C is higher in self-cleavage: 0.19 for the first, 2.16 for the second.

Compared with G11A U20G, U81C U115C is higher in self-cleavage: 1.05 for the first, 1.39 for the second.

Going from A94U U115C to U29C A67U, the self-cleavage falls from 0.45 to 0.12.

First: C84A A141G
Second: G74A G89A
The self-cleavage of the first is higher: 0.09 for the first, 0.03 for the second.

Compared with A43U U73C, A57U A117C is lower in self-cleavage: 1.79 for the first, 0.28 for the second.

First: A64G G93A
Second: C19U G36C
The self-cleavage of the first is lower: 0.04 for the first, 0.82 for the second.

Going from U15A U46G to U12A U96G, the self-cleavage falls from 0.85 to 0.38.

Compared with A50U U104C, G89A U100A is lower in self-cleavage: 1.03 for the first, 0.04 for the second.

Going from C3A U39A to U52C G53A, the self-cleavage falls from 0.96 to 0.6.

Going from G88A A140G to A57G G105A, the self-cleavage rises from 0.08 to 0.48.

Going from A57U U119C to A107G A124G, the self-cleavage rises from 0.06 to 0.96.

Compared with A59U A77G, A124U U132C is higher in self-cleavage: 1.01 for the first, 1.43 for the second.

Going from C63A U100C to G53U U115C, the self-cleavage rises from 0.04 to 1.91.

First: U13A U62C
Second: U115C U134C
The self-cleavage of the first is lower: 0.03 for the first, 1.61 for the second.

First: A78U A140G
Second: G54U A78G
The self-cleavage of the first is higher: 1.96 for the first, 0.44 for the second.

Compared with C111U A121U, G89A U119C is lower in self-cleavage: 1.28 for the first, 0.06 for the second.

Going from U62A U143A to U62C U85C, the self-cleavage rises from 0.04 to 0.05.

Compared with G35A A117U, G93A A107G is lower in self-cleavage: 0.56 for the first, 0.06 for the second.

First: A30C A57G
Second: A42U U112C
The self-cleavage of the first is lower: 0.52 for the first, 1.08 for the second.

First: A57U A121U
Second: U81A U96C
The self-cleavage of the first is lower: 0.12 for the first, 0.13 for the second.

First: U26A U52A
Second: U45C A141U
The self-cleavage of the first is lower: 0.81 for the first, 1.79 for the second.

Compared with G35C A65G, U29C U130G is higher in self-cleavage: 0.04 for the first, 1.84 for the second.

Compared with U46C G105A, G75U A78U is higher in self-cleavage: 1.16 for the first, 1.49 for the second.

Going from C3U U143C to G36C C71G, the self-cleavage falls from 0.62 to 0.15.

First: C38U A142U
Second: G49C A138G
The self-cleavage of the first is lower: 0.32 for the first, 1.59 for the second.

Compared with U1C A141U, U1G G114C is lower in self-cleavage: 0.71 for the first, 0.52 for the second.

First: U39A U45C
Second: G53A A107G
The self-cleavage of the first is higher: 1.58 for the first, 1.28 for the second.

Going from U62C C101A to G32A U96A, the self-cleavage rises from 0.04 to 0.05.

Compared with G72U C76U, G49U A140U is lower in self-cleavage: 2.1 for the first, 0.8 for the second.

Going from G72A U109A to A2G A59G, the self-cleavage falls from 1.37 to 0.39.

Compared with U96A C128U, A50G C66A is lower in self-cleavage: 0.07 for the first, 0.06 for the second.

First: G41A U104C
Second: A42G A77U
The self-cleavage of the first is higher: 1.53 for the first, 1.02 for the second.

In the case of U29G U96C, the self-cleavage is reported as 0.67.
